For assay [1], the target named is human PlGF-1 comprising amino acids 1-137 produced in human embryonic kidney cells (human) (UniProt P49763). Kind of assay: Format 2 …, capture MAb264, detection Pb264; sFlt-1 153 pmol/L (ratio 5).
Assay [2] shares this target. Briefly: Format 2 …, capture MAb264, detection Pb264; sFlt-1 1227 pmol/L (ratio 40).
For assay [3] the target is unchanged. Briefly: Format 1 …, capture 2-826-335, detection 1-255-713; sFlt-1 3067 pmol/L (ratio 100).
Assay [4] concerns the target T1, CHO human PlGF-1 fragment (comprising amino acids 17-131; ATCC PTA-8540) (human, UniProt P49763 35-221).
T1 sequence: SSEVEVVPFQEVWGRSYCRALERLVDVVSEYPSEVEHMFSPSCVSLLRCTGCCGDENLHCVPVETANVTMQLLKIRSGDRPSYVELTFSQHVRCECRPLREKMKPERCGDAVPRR
Briefly: … sandwich, capture MAb826, detection pAb264; antigen 15 pg/mL.

Assay [5] addresses T2, CHO human PlGF-1 comprising amino acids 1-137 (human PlGF-1-His (1-131), CHO 6305) (human, UniProt P49763 19-221, N-glycans at N21 (completely glycosylated) and N89 (partially glycosylated)).
T2 construct: Mature human PlGF-1 with 6xHis tag (137 amino acids); also called CHO (1-137)
T2 sequence: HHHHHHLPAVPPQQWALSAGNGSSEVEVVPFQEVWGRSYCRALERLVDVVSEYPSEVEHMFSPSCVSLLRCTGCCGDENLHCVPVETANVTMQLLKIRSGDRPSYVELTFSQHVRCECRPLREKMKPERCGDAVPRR
The description is as above.

Assay [6] concerns the target T3, human PlGF-1 comprising amino acids 1-137 produced in human embryonic kidney cells (human, UniProt P49763 19-221).
T3 construct: Mature human PlGF-1 with 6xHis tag; also called HEK (1-137); full length HEK human PlGF-1 (1-137)
T3 sequence: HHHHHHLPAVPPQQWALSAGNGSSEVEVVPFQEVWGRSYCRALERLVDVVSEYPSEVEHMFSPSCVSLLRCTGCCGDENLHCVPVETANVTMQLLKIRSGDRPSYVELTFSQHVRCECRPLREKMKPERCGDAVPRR
The assay is described as above.

Assay [7] concerns the target T4, human PlGF-1 fragment (comprising amino acids 17-131) produced in human embryonic kidney cells (human, UniProt P49763 35-221).
T4 sequence: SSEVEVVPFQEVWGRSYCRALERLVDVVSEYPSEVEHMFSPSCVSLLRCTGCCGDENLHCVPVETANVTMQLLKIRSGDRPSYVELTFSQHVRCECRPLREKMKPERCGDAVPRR
The description is as above.

Assay [8] deals with T1, CHO human PlGF-1 fragment (comprising …). Briefly: … sandwich, capture MAb826, detection pAb264; antigen 750 pg/mL.
The target in assay [9] is T2, CHO human PlGF-1 comprising amino acids …. The description is as above.
Assay [10] has as its target T3, human PlGF-1 comprising amino acids …. The assay is described as above.
For assay [11], the target named is T4, human PlGF-1 fragment (comprising amino …). The description is as above.
In assay [12] the target is recombinant human PlGF-1 (comprising amino acids 1-131) expressed in E. coli (R&D Systems) (human) (UniProt P49763). Briefly: … sandwich, capture MAb255, detection pAb264; antigen 60 pg/mL.
The target is the same in assay [13]. Briefly: … sandwich, capture MAb255, detection pAb264; antigen 1500 pg/mL.
The target of assay [14] is T1, CHO human PlGF-1 fragment (comprising …). Briefly: … sandwich, capture MAb255, detection MAb826; antigen 60 pg/mL. In outline:
(§1)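 Human PlGF-1 antigen preparations, including CHO cell-expressed recombinant forms, spanned 0 to 1500 pg/mL in a sandwich immunoassay. A monoclonal anti-human PlGF-1 antibody, immobilized on magnetic microparticles through passive coating and EDAC cross-linking, captured the antigen, and an acridinium ester-labeled monoclonal anti-human PlGF-1 antibody detected it. Chemiluminescent relative light units (RLU) were recorded for every antigen level.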

The target in assay [15] is T2, CHO human PlGF-1 comprising amino acids …. The assay is described as above. Put shortly: as §1
For assay [16], the target named is T3, human PlGF-1 comprising amino acids …. The description is as above. Put shortly:
as §1

Assay [17] concerns the target T4, human PlGF-1 fragment (comprising amino …). The assay is described as above. Put shortly:
as §1

Assay [18] has as its target T2, CHO human PlGF-1 comprising amino acids …. Kind of assay: … sandwich, capture MAb255, detection MAb826; antigen 250 pg/mL. In outline:
as §1

This passage reports % Inhibition, PlGF-1 Measured and RLU results from patent publication US20100015637A1 (AbbVie / Abbott, published 2010).

As a reminder, the % Inhibition is the share of the control response that was lost under treatment. As to “native sFlt-1, isolated from human placental tissue (from UniProt P17948 27-687) (receptor)”, the % Inhibition in [1] came to 64.9%; in assay [2] it was 92.9%; in assay [3], 94.1%. Also, the results for the PlGF-1 Measured in assay [1], in [2] and in assay [3] were 276 pg/mL, 55.5 pg/mL and 60.3 pg/mL, respectively.

B1: monoclonal antibody 2-826-335 (produced by murine hybridoma cell line 2-826-335, ATCC PTA-8539) (antibody, mouse IgG1, V domains shown)
VH: QVQLKQSGPGLVQPSQSLSITCTVSGFSLTTYGIHWVRQSPGKGLEWLGVMWSGGDTDYDAAFISRLSISKDNSKSQVFFKMNSLQANDTGIYYCARYRFYGMDYWGQGTSVTVSS
VL: AIQMTQSSSSFSVSLGDRVTITCKASEDIYNRFAWYQQKPGNAPRLLISGAASLEAGVPSRFSGSGSGQDYTLSITSLQTEDVATYYCQQYWSTPWTFGGGTKLEIKR
notes: also called MAb826
For the molecule B1, the RLU turned out to be 11200 RLU in [4]; 10100 RLU in assay [5]; 15500 RLU in assay [6]; 12800 RLU in [7]; 239000 RLU in [8]; 180000 RLU in assay [9]. Further, the RLU in [10] was found to be 423000 RLU; in assay [11], 336000 RLU.

B2: monoclonal antibody 1-255-713 (produced by murine hybridoma cell line 1-255-713, ATCC PTA-8536) (antibody, mouse IgG2a, V domains shown)
VH: QVHLQQSGAELMKPGASVKISCKATGYTFSSYWIEWVKQRPGHGLEWIGEILPGSVSNNFNEKFKDKATLTADPSSNTAYIQVSSLTSEDSAVYYCARSTGFYYGGNYFDHWGQGTTLAVSS
VL: DVVMTQTPLSLPVSPGDQASISCRSSQSLVHSNGHTYLHWYLQKPGQSPKLLIYKVSNRFSGVPDRVSGSGSGTDFTLKISRVEAEDLGVYFCSQSTHVPPTFGGGTKLEIKR
notes: also called MAb255
Regarding B2, the RLU came out at 161000 RLU in assay [12]; 2.19e+06 RLU in assay [13]; 42100 RLU in assay [14]; 42200 RLU in assay [15]; 101000 RLU in [16]; 57900 RLU in [17]. In assay [18], the RLU worked out at 153000 RLU.
